Data taken from publication PMC8070380 (2021).

Assays:
[1] = target: T1, A3Bctd-DM (L230K/F308K), residues 187-378 (human, UniProt Q9UH17 187-378, L230K | F308K); test: SPR; association 300 s, dissociation 750 s
[2] = target: T1, A3Bctd-DM (L230K/F308K), residues …; test: SPR; association 120 s, dissociation 300 s

T1 sequence (Q9UH17 187-378 L230K/F308K): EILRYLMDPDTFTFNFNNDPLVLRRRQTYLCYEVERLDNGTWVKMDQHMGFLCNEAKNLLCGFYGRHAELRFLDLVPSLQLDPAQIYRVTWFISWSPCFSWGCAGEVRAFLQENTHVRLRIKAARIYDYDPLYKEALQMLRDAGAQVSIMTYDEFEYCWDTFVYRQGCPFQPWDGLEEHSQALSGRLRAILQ

koff [1]: 0.000331 s⁻¹ | koff [2]: 0.000779 s⁻¹
B1: scFv 5G7 (heavy chain Fv followed by light chain Fv, 16-residue His8 linker) (scFv, V domains shown)
VH: EVQLLESGGDLVKPGGSLKLSCAASGFTFSSYGMSWVRQTPDKRLEWVATISSGGSYTYYPDSVKGRFTISRDNAKNTLYLQMSSLKSEDTAMYYCARGGEGYYFDYWGQGTTLTVSS
VL: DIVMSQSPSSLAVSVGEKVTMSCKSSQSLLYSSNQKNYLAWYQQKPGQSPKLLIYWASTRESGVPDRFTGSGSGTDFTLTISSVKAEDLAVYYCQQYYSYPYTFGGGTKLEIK
